# Data from patent publication US20240209080A1 (PROFOUNDBIO US, published 2024).
# Where a chain is given by its changes, count along the chain named.
# B1: FR107-ADC (reference antibody mirvetuximab huFR107 conjugated to mc-VC-PAB-MMAE) (antibody, V domains shown)
# VH: QVQLVQSGAEVVKPGASVKISCKASGYTFTGYFMNWVKQSPGQSLEWIGRIHPYDGDTFYNQKFQGKATLTVDKSSNTAHMELLSLTSEDFAVYYCTRYDGSRAMDYWGQGTTVTVSS
# VL: DIVLTQSPLSLAVSLGQPAIISCKASQSVSFAGTSLMHWYHQKPGQQPRLLIYRASNLEAGVPDRFSGSGSKTDFTLTISPVEAEDAATYYCQQSREYPYTFGGGTKLEIK
# modifications: mc-VC-PAB-MMAE on cysteine thiols after TCEP reduction (positions not stated; DAR within 3~4)
# notes: Control conjugate
# B2: F8-ADC (antibody F8 conjugated to mc-VC-PAB-MMAE) (antibody, V domains shown)
# VH: EVQLLESGGGVVQHGRSLRLSCAASGFTFSSYGMHWVRQAPGKGLEWVAVISYDGSNKYYADSVKGRFTISRDNSKNTLYLQMNSLRAEDTAVYYCARPRAYYGAYGSSFDYWGQGTQVTVSS
# VL: EIVMTQSPSSVSASVGDRVAITCRASQGISSWLAWYQQKPGKAPKLLIYAASSLQSGVPSRFSGSGSGTDFTLTISSLQPEDFATYYCQQSYSTPLTFGGGTKVDIK
# modifications: mc-VC-PAB-MMAE on cysteine thiols after TCEP reduction (positions not stated; DAR within 3~4)
# notes: Antibody-drug conjugate; also called F8 immunoconjugate
# B3: anti-FOLR1 antibody F1 (antibody, V domains shown)
# VH: B2 VH with H14P
# VL: B2 VL
# notes: also called clone F1
# B4: anti-FOLR1 antibody F112 (antibody, V domains shown)
# VH: B2 VH with H14P, D73H
# VL: B2 VL
# notes: also called clone F112
# B5: anti-FOLR1 antibody F138 (antibody, V domains shown)
# VH: B2 VH with H14P, R72T, D73H
# VL: B2 VL
# notes: also called clone F138
# B6: anti-FOLR1 antibody F26 (antibody, V domains shown)
# VH: B2 VH with H14R, Q82P
# VL: B2 VL
# notes: also called clone F26
# B7: F131-ADC (antibody F131 conjugated to mc-VC-PAB-MMAE) (antibody, V domains shown)
# VH: B2 VH with H14P, D73A
# VL: B2 VL
# modifications: mc-VC-PAB-MMAE on cysteine thiols after TCEP reduction (positions not stated; DAR within 3~4)
# notes: Antibody-drug conjugate; also called F131 immunoconjugate
# B8: anti-FOLR1 antibody F123 (antibody, V domains shown)
# VH: B2 VH with H14P, G15E, D73A
# VL: B2 VL
# notes: also called clone F123
# B9: anti-FOLR1 antibody F8 (antibody, V domains shown)
# VH: B2 VH
# VL: B2 VL
# notes: also called clone F8
# B10: anti-FOLR1 antibody F48 (antibody, V domains shown)
# VH: B2 VH with H14P, Q82H
# VL: B2 VL
# notes: also called clone F48
# B11: F26-ADC (antibody F26 conjugated to mc-VC-PAB-MMAE) (antibody, V domains shown)
# VH: B2 VH with H14R, Q82P
# VL: B2 VL
# modifications: mc-VC-PAB-MMAE on cysteine thiols after TCEP reduction (positions not stated; DAR within 3~4)
# notes: Antibody-drug conjugate; also called F26 immunoconjugate
# B12: anti-FOLR1 antibody F100 (antibody, V domains shown)
# VH: B2 VH with H14P, D73P
# VL: B2 VL
# notes: also called clone F100
# B13: anti-FOLR1 antibody F131 (antibody, V domains shown)
# VH: B2 VH with H14P, D73A
# VL: B2 VL
# notes: also called F131 mAb; clone F131
# B14: anti-FOLR1 antibody F40 (antibody, V domains shown)
# VH: EVQLLESGGGVVQPGRSLRLSCAASGFTFSSYAMHWVRQAPGKGLEWVAVISYDGSNKYYADSVKGRFIISRDNSKNTVYLQMNSLRAEDTAVYYCARPTYVFTYTGSSFDYWGQGTQVTVSS
# VL: DIQVTQSPSSLSASLGDTVSITCRASRGLTDSVAWYQQKPGQAPKLLIYAASTLQSGVPSRFGGSGSGSYFTLTITSLQPEDVATYYCQNYKSAPWTFGQGTKVEIK
# notes: also called clone F40
# Assays:
# [1] = target: T1, human FOLR1 on cells (Hela, RPTEC/TERT1, OVCAR3, OV90, IGROV-1, JEG-3, KB, NCI-H441) (human, UniProt P15328 25-234); test: cell-based or functional assay
# [2] = target: T2, Recombinant His-tagged FOLR1 (Example 5 ELISA) (UniProt P15328 25-233, limits assumed); test: ELISA on coated recombinant His-tagged FOLR1, OD450; unit from the axis 'ADC conc ng/ml'
# T2 construct: also called FOLR1-his; recombinant protein FOLR-1; not shown: His tag
# [3] = target: T3, human FOLR1 protein, His Tag (ACRO-FO1-H52H1) (human, UniProt P15328 25-233); test: ELISA OD450 on human FOLR1 divided by OD450 of IgG level ELISA
# T3 construct: not shown: His tag
# [4] = target: T2, Recombinant His-tagged FOLR1 (Example 5 …); test: ELISA on coated recombinant His-tagged FOLR1, OD450; unit from the axis 'ng/ml'; curves labelled without '-ADC'
# [5] = target: T1, human FOLR1 on cells (Hela, …); test: flow cytometry on JEG-3 cells, PE anti-human Fc; unit from the axis 'Con.nM'
# T2 sequence (P15328 25-233 limits assumed): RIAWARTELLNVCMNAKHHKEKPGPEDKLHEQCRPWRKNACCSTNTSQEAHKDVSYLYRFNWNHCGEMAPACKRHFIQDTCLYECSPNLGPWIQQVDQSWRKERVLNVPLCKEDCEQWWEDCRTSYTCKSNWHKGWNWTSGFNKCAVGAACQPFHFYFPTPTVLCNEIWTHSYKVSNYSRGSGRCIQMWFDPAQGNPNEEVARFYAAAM
# T3 sequence (P15328 25-233 limits assumed): as above
# T1 sequence (P15328 25-234): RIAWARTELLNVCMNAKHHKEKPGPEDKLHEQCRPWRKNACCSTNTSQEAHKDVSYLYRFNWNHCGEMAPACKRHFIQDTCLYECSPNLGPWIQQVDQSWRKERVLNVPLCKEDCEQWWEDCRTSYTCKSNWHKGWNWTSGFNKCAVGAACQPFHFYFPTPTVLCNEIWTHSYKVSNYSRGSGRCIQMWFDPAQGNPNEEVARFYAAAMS
binder,measurement,setting,value
B1,"Internalization ratio (%), Hela, 4 h",[1],58.4%
same,"Internalization ratio (%), Hela, 24 h",[1],75.1%
same,"Internalization ratio (%), OV90, 4 h",[1],28%
same,"Internalization ratio (%), OVCAR3, 4 h",[1],26.3%
same,"Internalization ratio (%), OVCAR3, 24 h",[1],44.8%
same,EC50,[2],3.39 ng/mL
B2,"Internalization ratio (%), Hela, 4 h",[1],45.7%
same,"Internalization ratio (%), Hela, 24 h",[1],73.1%
same,"Internalization ratio (%), OV90, 4 h",[1],32.7%
same,"Internalization ratio (%), OVCAR3, 4 h",[1],34.5%
same,"Internalization ratio (%), OVCAR3, 24 h",[1],47.6%
same,EC50,[2],6.53 ng/mL
B3,Target binding/IgG level,[3],1.08 ratio of OD450
B4,Target binding/IgG level,[3],1.12 ratio of OD450
B5,Target binding/IgG level,[3],1.2 ratio of OD450
B6,Target binding/IgG level,[3],1.21 ratio of OD450
same,EC50,[4],4.68 ng/mL
B7,"Internalization ratio (%), Hela, 4 h",[1],50%
same,"Internalization ratio (%), Hela, 24 h",[1],74.8%
same,"Internalization ratio (%), OV90, 4 h",[1],15%
same,"Internalization ratio (%), OVCAR3, 4 h",[1],35.2%
same,"Internalization ratio (%), OVCAR3, 24 h",[1],47.7%
same,EC50,[2],6.64 ng/mL
B8,Target binding/IgG level,[3],1.06 ratio of OD450
B9,Target binding/IgG level,[3],1.12 ratio of OD450
same,EC50,[4],8.48 ng/mL
B10,Target binding/IgG level,[3],1.12 ratio of OD450
B11,"Internalization ratio (%), Hela, 4 h",[1],43.3%
same,"Internalization ratio (%), Hela, 24 h",[1],75.5%
same,"Internalization ratio (%), OV90, 4 h",[1],21.6%
same,"Internalization ratio (%), OVCAR3, 4 h",[1],38.3%
same,"Internalization ratio (%), OVCAR3, 24 h",[1],48.1%
same,EC50,[2],8.04 ng/mL
B12,Target binding/IgG level,[3],1.48 ratio of OD450
B13,Target binding/IgG level,[3],1.02 ratio of OD450
same,EC50,[5],1.55 nM
same,EC50,[4],8.46 ng/mL
B14,Target binding/IgG level,[3],1.02 ratio of OD450
